What was measured:
PHK = experiment: PK selectivity profiling, residual kinase activity; type: biochemical; conditions: 1 μM ARC-669, ATP close to Km
S6K1 = S6K1 (Homo sapiens, UniProt P23443); experiment: biochemical; conditions: read-out: Percentages of residual activities of the kinase reaction
Procedure: (§1) Selectivity testing (Table 2) was performed on the commercial basis at the Division of Signal Transduction Therapy, University of Dundee. ATP concentrations that were used in testing were close to the Km value of the kinase.

PRK2 = PRK2 (Homo sapiens, UniProt Q16513); experiment: biochemical; conditions: read-out: Percentages of residual activities of the kinase reaction
Procedure: as §1

HER4 = HER4 (Homo sapiens, UniProt Q15303); experiment: biochemical; conditions: read-out: Percentages of residual activities of the kinase reaction
Procedure: as §1

CHK1 = CHK1 (Homo sapiens, UniProt O14757); experiment: biochemical; conditions: read-out: Percentages of residual activities of the kinase reaction
Procedure: as §1

EPH-B2 = EPH-B2 (Homo sapiens, UniProt P29323); experiment: biochemical; conditions: read-out: Percentages of residual activities of the kinase reaction
Procedure: as §1

CAMK1 = CAMK1 (Homo sapiens, UniProt Q14012); experiment: biochemical; conditions: read-out: Percentages of residual activities of the kinase reaction
Procedure: as §1

MNK2 = MNK2 (Homo sapiens, UniProt Q9HBH9); experiment: biochemical; conditions: read-out: Percentages of residual activities of the kinase reaction
Procedure: as §1

TBK1 = TBK1 (Homo sapiens, UniProt Q9UHD2); experiment: biochemical; conditions: read-out: Percentages of residual activities of the kinase reaction
Procedure: as §1

PKCa = PKCa (Homo sapiens, UniProt P17252); experiment: biochemical; conditions: read-out: Percentages of residual activities of the kinase reaction
Procedure: as §1

DYRK3 = DYRK3 (Homo sapiens, UniProt O43781); experiment: biochemical; conditions: read-out: Percentages of residual activities of the kinase reaction
Sequence of DYRK3 (O43781 whole entry, species assumed): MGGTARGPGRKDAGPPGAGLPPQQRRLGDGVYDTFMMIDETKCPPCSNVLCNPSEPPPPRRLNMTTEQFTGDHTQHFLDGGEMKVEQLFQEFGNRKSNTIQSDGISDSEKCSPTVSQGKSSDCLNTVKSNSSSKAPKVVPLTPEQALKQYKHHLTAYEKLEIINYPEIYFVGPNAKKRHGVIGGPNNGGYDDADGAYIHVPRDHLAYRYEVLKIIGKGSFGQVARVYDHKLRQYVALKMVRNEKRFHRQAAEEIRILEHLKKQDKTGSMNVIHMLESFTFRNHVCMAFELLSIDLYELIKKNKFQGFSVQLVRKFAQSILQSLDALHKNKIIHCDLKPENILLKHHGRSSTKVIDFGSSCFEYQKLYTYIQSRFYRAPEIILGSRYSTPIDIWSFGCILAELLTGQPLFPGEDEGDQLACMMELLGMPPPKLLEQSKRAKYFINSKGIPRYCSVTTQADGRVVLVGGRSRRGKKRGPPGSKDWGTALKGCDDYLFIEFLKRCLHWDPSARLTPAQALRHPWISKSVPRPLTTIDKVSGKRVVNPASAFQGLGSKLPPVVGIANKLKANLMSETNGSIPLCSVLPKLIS
Procedure: as §1

MAPKAP-K2 = MAPKAP-K2 (Homo sapiens, UniProt P49137); experiment: biochemical; conditions: read-out: Percentages of residual activities of the kinase reaction
Sequence of MAPKAP-K2 (P49137 whole entry, species assumed): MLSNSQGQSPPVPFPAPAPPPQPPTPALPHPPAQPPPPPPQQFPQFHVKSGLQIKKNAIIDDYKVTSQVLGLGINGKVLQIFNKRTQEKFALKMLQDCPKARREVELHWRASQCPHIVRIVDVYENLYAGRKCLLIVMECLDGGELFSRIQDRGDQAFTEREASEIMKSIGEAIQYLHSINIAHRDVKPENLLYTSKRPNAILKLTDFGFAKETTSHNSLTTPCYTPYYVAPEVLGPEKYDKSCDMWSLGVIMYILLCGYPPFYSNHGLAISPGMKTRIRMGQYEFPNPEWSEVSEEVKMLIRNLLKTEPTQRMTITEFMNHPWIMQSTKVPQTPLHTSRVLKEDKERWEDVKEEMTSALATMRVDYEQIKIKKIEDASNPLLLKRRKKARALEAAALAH
Procedure: as §1

ROCK 2 = ROCK 2 (Homo sapiens, UniProt O75116); experiment: biochemical; conditions: read-out: Percentages of residual activities of the kinase reaction
Procedure: as §1

MLK1 = MLK1 (Homo sapiens, UniProt P80192); experiment: biochemical; conditions: read-out: Percentages of residual activities of the kinase reaction
Procedure: as §1

ABL = ABL (Homo sapiens, UniProt P00519); experiment: biochemical; conditions: read-out: Percentages of residual activities of the kinase reaction
Procedure: as §1

TAK1 = TAK1 (Homo sapiens, UniProt O43318); experiment: biochemical; conditions: read-out: Percentages of residual activities of the kinase reaction
Procedure: as §1

ERK1 = ERK1 (Homo sapiens, UniProt P27361); experiment: biochemical; conditions: read-out: Percentages of residual activities of the kinase reaction
Procedure: as §1

BRK = BRK (Homo sapiens, UniProt Q13882); experiment: biochemical; conditions: read-out: Percentages of residual activities of the kinase reaction
Procedure: as §1

MARK3 = MARK3 (Homo sapiens, UniProt P27448); experiment: biochemical; conditions: read-out: Percentages of residual activities of the kinase reaction
Procedure: as §1

EPH-A4 = EPH-A4 (Homo sapiens, UniProt P54764); experiment: biochemical; conditions: read-out: Percentages of residual activities of the kinase reaction
Sequence of EPH-A4 (P54764 20-986, species assumed): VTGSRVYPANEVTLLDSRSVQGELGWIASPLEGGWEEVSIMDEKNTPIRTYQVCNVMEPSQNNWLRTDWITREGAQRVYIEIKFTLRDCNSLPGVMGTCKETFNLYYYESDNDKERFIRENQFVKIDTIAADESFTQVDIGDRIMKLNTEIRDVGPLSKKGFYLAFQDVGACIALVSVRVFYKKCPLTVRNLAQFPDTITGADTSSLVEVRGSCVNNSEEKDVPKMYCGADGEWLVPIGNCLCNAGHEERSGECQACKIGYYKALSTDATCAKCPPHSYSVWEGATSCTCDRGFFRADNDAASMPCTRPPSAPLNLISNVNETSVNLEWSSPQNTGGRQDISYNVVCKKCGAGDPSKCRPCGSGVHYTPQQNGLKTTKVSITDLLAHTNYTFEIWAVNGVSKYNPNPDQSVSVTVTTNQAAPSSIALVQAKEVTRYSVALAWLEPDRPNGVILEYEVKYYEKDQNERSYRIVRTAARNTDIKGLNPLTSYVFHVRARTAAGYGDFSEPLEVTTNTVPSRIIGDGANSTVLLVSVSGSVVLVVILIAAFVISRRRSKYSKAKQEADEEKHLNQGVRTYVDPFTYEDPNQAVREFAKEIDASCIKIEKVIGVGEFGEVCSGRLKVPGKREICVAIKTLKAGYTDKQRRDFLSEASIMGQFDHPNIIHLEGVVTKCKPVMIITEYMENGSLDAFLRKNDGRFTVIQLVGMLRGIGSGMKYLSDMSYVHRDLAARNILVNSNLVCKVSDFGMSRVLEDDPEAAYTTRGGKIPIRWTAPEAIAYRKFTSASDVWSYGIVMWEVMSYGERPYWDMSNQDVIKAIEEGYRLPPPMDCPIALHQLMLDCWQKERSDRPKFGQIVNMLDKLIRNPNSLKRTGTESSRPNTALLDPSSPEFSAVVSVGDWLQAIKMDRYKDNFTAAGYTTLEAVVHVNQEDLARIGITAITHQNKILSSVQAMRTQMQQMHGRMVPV
Procedure: as §1

IKKe = IKKe (Homo sapiens, UniProt Q14164); experiment: biochemical; conditions: read-out: Percentages of residual activities of the kinase reaction
Sequence of IKKe (Q14164 whole entry, species assumed): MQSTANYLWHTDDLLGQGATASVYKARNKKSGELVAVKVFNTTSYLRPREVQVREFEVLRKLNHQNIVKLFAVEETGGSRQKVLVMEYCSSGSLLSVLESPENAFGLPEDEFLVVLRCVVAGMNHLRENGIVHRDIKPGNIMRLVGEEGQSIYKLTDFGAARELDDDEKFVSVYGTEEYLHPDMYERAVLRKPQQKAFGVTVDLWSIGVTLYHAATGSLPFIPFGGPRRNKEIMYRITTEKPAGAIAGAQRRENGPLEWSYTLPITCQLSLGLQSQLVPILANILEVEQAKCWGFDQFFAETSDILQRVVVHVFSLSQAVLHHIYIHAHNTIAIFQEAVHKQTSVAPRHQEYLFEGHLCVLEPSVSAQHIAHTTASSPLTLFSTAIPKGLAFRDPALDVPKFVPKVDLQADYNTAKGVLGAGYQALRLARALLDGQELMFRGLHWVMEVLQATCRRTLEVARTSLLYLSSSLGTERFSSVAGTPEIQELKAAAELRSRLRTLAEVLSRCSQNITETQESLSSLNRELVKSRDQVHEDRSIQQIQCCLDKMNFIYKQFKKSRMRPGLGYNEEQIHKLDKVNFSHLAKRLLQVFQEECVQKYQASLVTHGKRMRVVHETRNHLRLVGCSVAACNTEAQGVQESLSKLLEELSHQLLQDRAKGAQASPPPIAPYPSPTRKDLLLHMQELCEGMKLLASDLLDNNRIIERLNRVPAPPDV
Procedure: as §1

CDK2-Cyclin A = CDK2-Cyclin A (Homo sapiens, UniProt P24941); experiment: biochemical; conditions: read-out: Percentages of residual activities of the kinase reaction
Procedure: as §1

MINK1 = MINK1 (Homo sapiens, UniProt Q8N4C8); experiment: biochemical; conditions: read-out: Percentages of residual activities of the kinase reaction
Procedure: as §1

IR = IR (Homo sapiens, UniProt P06213); experiment: biochemical; conditions: read-out: Percentages of residual activities of the kinase reaction
Procedure: as §1

SYK = SYK (Homo sapiens, UniProt P43405); experiment: biochemical; conditions: read-out: Percentages of residual activities of the kinase reaction
Procedure: as §1

PKBb = PKBb (Homo sapiens, UniProt P31751); experiment: biochemical; conditions: read-out: Percentages of residual activities of the kinase reaction
Procedure: as §1

CSK = CSK (Homo sapiens, UniProt P41240); experiment: biochemical; conditions: read-out: Percentages of residual activities of the kinase reaction
Procedure: as §1

BRSK2 = BRSK2 (Homo sapiens, UniProt Q8IWQ3); experiment: biochemical; conditions: read-out: Percentages of residual activities of the kinase reaction
Sequence of BRSK2 (Q8IWQ3 whole entry, species assumed): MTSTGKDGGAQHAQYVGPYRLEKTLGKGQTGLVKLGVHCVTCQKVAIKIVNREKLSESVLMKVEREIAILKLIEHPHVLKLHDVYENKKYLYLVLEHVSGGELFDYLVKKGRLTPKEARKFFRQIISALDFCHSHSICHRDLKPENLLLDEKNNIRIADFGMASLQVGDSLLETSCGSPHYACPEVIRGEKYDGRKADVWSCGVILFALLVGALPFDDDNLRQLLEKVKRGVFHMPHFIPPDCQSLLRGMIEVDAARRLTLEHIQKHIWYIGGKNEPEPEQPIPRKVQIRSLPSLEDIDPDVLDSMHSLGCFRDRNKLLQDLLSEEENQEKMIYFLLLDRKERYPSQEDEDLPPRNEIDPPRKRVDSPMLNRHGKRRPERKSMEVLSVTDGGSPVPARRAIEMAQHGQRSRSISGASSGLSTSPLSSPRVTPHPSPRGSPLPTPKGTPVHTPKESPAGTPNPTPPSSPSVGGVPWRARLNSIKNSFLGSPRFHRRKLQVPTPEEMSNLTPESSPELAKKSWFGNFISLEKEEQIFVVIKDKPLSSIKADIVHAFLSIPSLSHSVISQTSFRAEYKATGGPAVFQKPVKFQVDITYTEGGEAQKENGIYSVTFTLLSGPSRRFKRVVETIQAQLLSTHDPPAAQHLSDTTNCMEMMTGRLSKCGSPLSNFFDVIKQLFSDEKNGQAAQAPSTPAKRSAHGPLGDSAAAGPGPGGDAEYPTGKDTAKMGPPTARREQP
Procedure: as §1

TrkA = TrkA (Homo sapiens, UniProt P04629); experiment: biochemical; conditions: read-out: Percentages of residual activities of the kinase reaction
Procedure: as §1

NEK2a = NEK2a (Homo sapiens, UniProt P51955); experiment: biochemical; conditions: read-out: Percentages of residual activities of the kinase reaction
Procedure: as §1

MKK2 = MKK2 (Homo sapiens, UniProt P36507); experiment: biochemical; conditions: read-out: Percentages of residual activities of the kinase reaction
Procedure: as §1

HIPK2 = HIPK2 (Homo sapiens, UniProt Q9H2X6); experiment: biochemical; conditions: read-out: Percentages of residual activities of the kinase reaction
Procedure: as §1

MEKK1 = MEKK1 (Homo sapiens, UniProt Q13233); experiment: biochemical; conditions: read-out: Percentages of residual activities of the kinase reaction
Procedure: as §1

MKK1 = MKK1 (Homo sapiens, UniProt Q02750); experiment: biochemical; conditions: read-out: Percentages of residual activities of the kinase reaction
Procedure: as §1

RSK1 = RSK1 (Homo sapiens, UniProt Q15418); experiment: biochemical; conditions: read-out: Percentages of residual activities of the kinase reaction
Procedure: as §1

PIM3 = PIM3 (Homo sapiens, UniProt Q86V86); experiment: biochemical; conditions: read-out: Percentages of residual activities of the kinase reaction
Procedure: as §1

EPH-B4 = EPH-B4 (Homo sapiens, UniProt P54760); experiment: biochemical; conditions: read-out: Percentages of residual activities of the kinase reaction
Procedure: as §1

STK33 = STK33 (Homo sapiens, UniProt Q9BYT3); experiment: biochemical; conditions: read-out: Percentages of residual activities of the kinase reaction
Procedure: as §1

CK1 = experiment: PK selectivity profiling, residual kinase activity; type: biochemical; conditions: 1 μM ARC-669, ATP close to Km
AMPK = experiment: PK selectivity profiling, residual kinase activity; type: biochemical; conditions: 1 μM ARC-669, ATP close to Km
SmMLCK = molecular target: T1, SmMLCK (Homo sapiens, UniProt Q15746); experiment: PK selectivity profiling, residual kinase activity; type: biochemical; conditions: 1 μM ARC-669, ATP close to Km, read-out: Percentages of residual activities of the kinase reaction
T1 construct: Division of Signal Transduction Therapy, University of Dundee (contract testing)
T1 sequence (Q15746 923-1914): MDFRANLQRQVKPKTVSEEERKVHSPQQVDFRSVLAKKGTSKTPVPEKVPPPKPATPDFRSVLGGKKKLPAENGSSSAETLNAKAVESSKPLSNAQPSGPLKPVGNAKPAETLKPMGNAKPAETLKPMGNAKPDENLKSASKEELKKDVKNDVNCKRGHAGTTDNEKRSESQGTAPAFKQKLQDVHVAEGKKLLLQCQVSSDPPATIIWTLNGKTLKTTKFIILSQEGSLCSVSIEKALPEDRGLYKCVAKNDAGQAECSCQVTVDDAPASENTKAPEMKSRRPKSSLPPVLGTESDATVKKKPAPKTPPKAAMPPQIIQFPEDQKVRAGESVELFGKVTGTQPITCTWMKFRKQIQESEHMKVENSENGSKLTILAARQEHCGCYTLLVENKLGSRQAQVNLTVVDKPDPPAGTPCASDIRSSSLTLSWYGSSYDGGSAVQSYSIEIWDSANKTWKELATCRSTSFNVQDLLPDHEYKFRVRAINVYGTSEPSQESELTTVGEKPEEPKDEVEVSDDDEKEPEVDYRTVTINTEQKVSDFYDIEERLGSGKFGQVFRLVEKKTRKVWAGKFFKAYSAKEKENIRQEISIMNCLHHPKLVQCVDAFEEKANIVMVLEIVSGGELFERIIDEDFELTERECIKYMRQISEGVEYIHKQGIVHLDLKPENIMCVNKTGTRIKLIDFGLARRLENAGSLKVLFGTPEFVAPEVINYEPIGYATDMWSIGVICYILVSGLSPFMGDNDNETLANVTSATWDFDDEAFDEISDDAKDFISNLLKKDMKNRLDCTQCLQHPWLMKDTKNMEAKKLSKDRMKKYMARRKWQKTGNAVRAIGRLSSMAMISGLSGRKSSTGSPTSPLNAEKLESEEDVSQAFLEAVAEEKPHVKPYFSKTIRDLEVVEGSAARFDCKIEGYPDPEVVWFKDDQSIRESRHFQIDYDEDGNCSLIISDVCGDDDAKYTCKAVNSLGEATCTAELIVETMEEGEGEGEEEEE

`CN(C)c1ccc2c(c1)Oc1cc(N(C)C)ccc1C21OC(=O)c2cc(C(=O)NCCCC[C@@H](NC(=O)[C@@H](CCCNC(=N)N)NC(=O)[C@@H](CCCNC(=N)N)NC(=O)[C@@H](CCCNC(=N)N)NC(=O)[C@@H](CCCNC(=N)N)NC(=O)[C@@H](CCCNC(=N)N)NC(=O)[C@@H](CCCNC(=N)N)NC(=O)CCCCCNC(=O)[C@@H](CCCNC(=N)N)NC(=O)CCCCCNC(=O)c3ccc(-c4ccnc(N)n4)s3)C(N)=O)ccc21` [ARC-669] was tested, and the “Percentages of residual activities of the kinase reaction” value (PHK) was 32%, the remaining activity at 1 µM (S6K1) was 4% and the remaining activity at 1 µM (PRK2) was 4%. For the same compound, the remaining activity at 1 µM (HER4) was 82%, the remaining activity at 1 µM (CHK1) was 29% and the remaining activity at 1 µM (EPH-B2) was 96%. It also gave a remaining activity at 1 µM (CAMK1) of 3%, a remaining activity at 1 µM (MNK2) of 76% and a remaining activity at 1 µM (TBK1) of 27%. It also gave a remaining activity at 1 µM (PKCa) of 15%, a remaining activity at 1 µM (DYRK3) of 18% and a remaining activity at 1 µM (MAPKAP-K2) of 13%. For the same compound, the remaining activity at 1 µM (ROCK 2) was 10%, the remaining activity at 1 µM (MLK1) was 60% and the remaining activity at 1 µM (ABL) was 88%. It also gave a remaining activity at 1 µM (TAK1) of 13%, a remaining activity at 1 µM (ERK1) of 114% and a remaining activity at 1 µM (BRK) of 100%. For the same compound, the remaining activity at 1 µM (MARK3) was 20%, the remaining activity at 1 µM (EPH-A4) was 76% and the remaining activity at 1 µM (IKKe) was 37%. It also gave a remaining activity at 1 µM (CDK2-Cyclin A) of 78%, a remaining activity at 1 µM (MINK1) of 51% and a remaining activity at 1 µM (IR) of 52%. It also gave a remaining activity at 1 µM (SYK) of 73%, a remaining activity at 1 µM (PKBb) of 4% and a remaining activity at 1 µM (CSK) of 51%. It also gave a remaining activity at 1 µM (BRSK2) of 77%, a remaining activity at 1 µM (TrkA) of 101% and a remaining activity at 1 µM (NEK2a) of 55%. It also gave a remaining activity at 1 µM (MKK2) of 68%, a remaining activity at 1 µM (HIPK2) of 63% and a remaining activity at 1 µM (MEKK1) of 19%. The remaining activity at 1 µM (MKK1) was 69%, the remaining activity at 1 µM (RSK1) was 2% and the remaining activity at 1 µM (PIM3) was 7%. The remaining activity at 1 µM (EPH-B4) was 98%, the remaining activity at 1 µM (STK33) was 76% and the “Percentages of residual activities of the kinase reaction” value (CK1) was 72%. The “Percentages of residual activities of the kinase reaction” value (AMPK) was 36% and the remaining activity at 1 µM (SmMLCK) was 46%.

Reference: patent publication US20140057284A1, “PHOTOLUMINESCENT MOLECULAR COMPLEX AND METHOD FOR DETERMINING OF THE CONCENTRATION OF SAID MOLECULAR COMPLEX” (priority 2011, published 2014)
